IntAct's records for PubMed 11923305

Experiments:
src_human SRC [1] = target: src_human SRC (UniProt P12931)
src_chick SRC [2] = target: src_chick SRC (UniProt P00523)
src_human SRC [3] = target: src_human SRC (UniProt P12931); remark: listed apart in the source
src_chick SRC [4] = target: src_chick SRC (UniProt P00523); remark: listed apart in the source

Substance | effect of a mutation on the interaction (src_human SRC [1]) | effect of a mutation on the interaction (src_chick SRC [2]) | effect of a mutation on the interaction (src_human SRC [3]) | effect of a mutation on the interaction (src_chick SRC [4])
Receptor-type tyrosine-protein phosphatase alpha (Homo sapiens) (from UniProt P18433) S189A | disrupting interaction | disrupting interaction |  | 
Receptor-type tyrosine-protein phosphatase alpha (Homo sapiens) (from UniProt P18433) S204A |  |  | disrupting interaction | disrupting interaction
